# Measured values taken from the nanobody polyreactivity screen of Harvey et al. (2022).
# Assay: yeast display, Sf9 membrane polyspecificity reagent, FACS + sequencing; frameworks hold sequencing errors
# Summary of the method: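 Galactose-induced (36–48 hours) yeast carrying a synthetic nanobody display library were exposed to 10% biotinylated, detergent-solubilized Sf9 membrane reagent at 4 °C for 1 hour. FACS followed streptavidin microbead enrichment, using low and high (top ~1%) gates for expression (anti-HA) and reagent binding (streptavidin). Colony PCR, MiSeq 2 × 250 sequencing and CDR-length filtering followed. Labels for polyreactivity reflect the gate of origin.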
row,Sequence,polyreactivity (PSR sort gate)
1,QVQLVESGGGLVQAGGSLRLSCAASGSTFVGYAMGWYRQAPGQERELVAGITINGGSTYYADSVKGRFTISRDNAKNTVYLQMNSLKPEDTAVYYCAATGNENYPDPLQSMDYWGQGTQVTVSS,low polyreactivity
2,QVQLVESGGGLVQAGGSLRLSCAASGSTFVGYAMGWYRQAPGTERDLVAAISSSGSTNYADSVKGRFTISRDNAKNTVYLQMNSLKPEDTAVYYCAALYSYFWLIIDYGYWGQGTQVTVSS,low polyreactivity
3,QVQLVESGGGLVQAGGSLRLSCAASGSTFVINAMGWYRQAPGKERELVAAISYDGGGTYYADSVKGRFTISRDNAKNTVYLQMNSLKPEDTAVYYCAAENFYPYTYYASDYWGQGTQVTVSS,high polyreactivity
4,QVQLVESGGGLVQAGGSLRLSCAASGSTFVKNSMGLYRQAPGKERELVAVISWPGSSTYYADSVKGRFTISRDNAKNTDYLQMISLKPEDTAVYYCNAPKIRPGSHTRHYYWGQGTQVTVSS,low polyreactivity
5,QVQLVESGGGLVQAGGSLRLSCAASGSTFVKYAMGWYRQAPGKERELVAVISSAGSTNYADSVKGRFTISRDNAKNTVYLQMNSLKPEDTAVYYCNAEPTTPYWDYWAYEDDYWGQGTQVTVSS,low polyreactivity
6,QVQLVESGGGLVQAGGSLRLSCAASGSTFVLYALGWYRQPPGKERELVAVISWSGGSTYYADSVKGRFTISRDKAKNTVYLQMNSLKPEDTADYYCAATGWSSFYYRFDYWGQGTQVTVSS,low polyreactivity
7,QVQLVESGGGLVQAGGSLRLSCAASGSTFVNNAMGWYRQAPGKERELVAAISWSGGSTYYADSVKGRFTISRDNAKNTVYLQMNSLNPEDTAVYYCAADGNARAAMDYWGQGTQVTVSS,low polyreactivity
8,QVQLVESGGGLVQAGGSLRLSCAASGSTFVNNAMGWYRQAPGKERELVAAITNGGSTNYADSVKGRFTISRDNAKNTVYLQMNSLKPEDTAVYYCAKYGDPYRHRSGTVEYGYWGQGTQVTVSS,low polyreactivity
9,QVQLVESGGGLVQAGGSLRLSCAASGSTFVPNAMGGSRPAPGKERELVAAISYSGGTTYYADSVKGRFTISRDNAKNTVYLQMNSLKPEDTAVYYCAARSKGAAAILDDYWGQGTQVTVSS,low polyreactivity
10,QVQLVESGGGLVQAGGSLRLSCAASGSTFVPNAMGWYRQAPGKEREFVAAIRVSGDNTYYADSVKGRFTISRDNAKNTVYLQMNSLKPEDTGVYYCAATGTVLGSVDYWGQGTQVTVSS,low polyreactivity
11,QVQLVESGGGLVQAGGSLRLSCAASGSTFVPNAMGWYRQAPGKERELVAAISSVGSTNYADSVKGRFTISRDNAKNTVYLQMNSLKPEDTAVYYCAVRYPWRYFKYGYWGQGTQVTVSS,low polyreactivity
12,QVQLVESGGGLVQAGGSLRLSCAASGSTFVPNDMGWYRQAPGKEMELVAGISSGGGTYADSVKGRFTISRDNAKNTVYLQLNSLKPVDTAVYYCNALHAYYVLTPYDYWGQGTQVTVSS,low polyreactivity
13,QVQLVESGGGLVQAGGSLRLSCAASGSTFVPYAMGWYRQAPGKEREFVAGITWSVGSTYYADSVKGRFTISRDNAKNTVYLQMNSLKPEDTAVYYCNAEIYAYFLWWYGYWGQGTQVTVSS,low polyreactivity
14,QVQLVESGGGLVQAGGSLRLSCAASGSTFVQNAMGWYRQAPGKERELVAAISRTGGSTYYADSVKGRITFSRDNAKNTVYLQLNTLKPEDTAVYFCAKRPPHYSWPKIIEFGSWGQGTQVTVSS,high polyreactivity
15,QVQLVESGGGLVQAGGSLRLSCAASGSTFVRNAMGWYRQAPGKERELVAAITWSTGTTYYADSVKGRFTISRDNAKNTVYLQMNSLKPEDTAVYYCAADIYTELFKHDYWGQGTQVTVSS,low polyreactivity
16,QVQLVESGGGLVQAGGSLRLSCAASGSTFVRNDMGWYRQAPGKERELVAAINGDGRTYYADSVKGRFTISRDNAKNTVYLQLNSLKPEDTAVYYCAADGYLLYVQHPNGRRYDYWGQGTQVTVSS,low polyreactivity
17,QVQLVESGGGLVQAGGSLRLSCAASGSTFVRNGMGWYRQAPGKERELVASISGRGGSTYYADSVKGRFTISRDNAKNTVYLQMNSLKPEDTAVYYCAVRYGFYSRYNYWGQGTQVTVSS,high polyreactivity
18,QVQLVESGGGLVQAGGSLRLSCAASGSTFVRYAMGWYRPAPGKERELVAVISSSGGTTYYADSVKGRFTISRDNAKNTVYLQMNSLKPEDTAVYSCARRVRWWGPRRSDFDYWGQGTQVTVSS,high polyreactivity
19,QVQLVESGGGLVQAGGSLRLSCAASGSTFVRYAMGWYRQAPGKDRELVARISSAGSTNYADSVKGRFTISRDNAKNTVYLQMNSLKPEDTAVYYCAATTKAGVSSGQGDSWGQGTQVTVSS,low polyreactivity
20,QVQLVESGGGLVQAGGSLRLSCAASGSTFVRYAMGWYRQAPGKERELVAAITGTGSSTYYADSVKGRFTISRDNAKNTVYLQMNSLKPEDTAVYYCAKRWRTVFGYDYWGQGTQVTVSS,high polyreactivity
21,QVQLVESGGGLVQAGGSLRLSCAASGSTFVRYAMGWYRQAPGKERELVAGISSGDRTYYADSVKGRFTISRDNAKNTVYLQMNSLKPEDTAVYYCNARPVYLLEGYYWGQGTQVTVSS,low polyreactivity
22,QVQLVESGGGLVQAGGSLRLSCAASGSTFVRYAMGWYRQEPGKERELVAAISKSGGSTYYADSVKGRFTISRDNAKNTVYLQMNSLKPEDTAVYYCNADVYKNSKFRIMGYWGQGTQVTVSS,low polyreactivity

row,Sequence,polyreactivity (PSR sort gate)
1,QVQLVESGGGLVQAGGSLRLSCAASGSTFVRYVMGWYRQAPGKERELVAAISRRGGSTYYADSVKGRFTISRDNAKNTVYLQMHSLKPEDSAVYYCARTVGYSTLLESVSWGQGTQLTVSS,high polyreactivity
2,QVQLVESGGGLVQAGGSLRLSCAASGSTFVSNAMGWYRPAPGKERELVAAISTSGGSTYYADSVKGRFTISRDNAKNTVYLLMNSLKPEDTAVYYCAKLLARGFRIWQDYDYWGQGTQVTVSS,low polyreactivity
3,QVQLVESGGGLVQAGGSLRLSCAASGSTFVSNAMGWYRQAPGKERELVAGISWSGGSTYYADSVKGRFTISRDNAKNTVYLQMHSLKPEDTAVYYCNAVYRPRQFDYWGQGTQVTVSS,low polyreactivity
4,QVQLVESGGGLVQAGGSLRLSCAASGSTFVSNAMGWYRQAPGKERELVASISQSGGGTDYADSVKGRFTISRDNAKNTVYLQMNSLKPEDTAVYYCAADRVPVQAPYDYWGQGTQVTVSS,high polyreactivity
5,QVQLVESGGGLVQAGGSLRLSCAASGSTFVSNGMGWYRQAPGKERELVAAITRGGSTKYADSVKGRFTISRDNAKNTVYLQMNSLKPEDTAVYYCAKRLYTRPGWYDYWGQGTQVTVSS,high polyreactivity
6,QVQLVESGGGLVQAGGSLRLSCAASGSTFVSYAMGWYRQAPGKERELVAAISISDSSTYYADSVKGRFSISRDNAKNTVYLQMNSLKPEDTAVYYCNRYDFWGQGTQVTVSS,low polyreactivity
7,QVQLVESGGGLVQAGGSLRLSCAASGSTFVSYAMGWYRQAPGKERELVAASSRSGGSTYYADSVKGRFTISRDNAKNTVYLQMNILIPEDTAVYYCAADGRGPSKRNRDYWGQGTQVTVSS,high polyreactivity
8,QVQLVESGGGLVQAGGSLRLSCAASGSTFVSYAMGWYRQAPGKERELVAGITRRGGTTYYADSVKGRFTISRDNAKNTVYLQMNSLKPEDTAVYYCARYSLYTGYRRYPLDYDYWGQGTQVTVSS,high polyreactivity
9,QVQLVESGGGLVQAGGSLRLSCAASGSTFVSYDMGWYRQAPGKERELVADISWSGVSTYADSVKGRFTISRDNAKNTVYLQMNSLKPEDTAVYYCATDDARRGYGYGYWGQGTQVTVSS,low polyreactivity
10,QVQLVESGGGLVQAGGSLRLSCAASGSTFVTNAMGWYRQAPGTEREFVAAISWISTSTYYADSVKGRFTISRDNAKNTVYLQMNSLKPEDTAVYYCNATTFAFSPSLKGAYGYWGQGTQVTVSS,low polyreactivity
11,QVQLVESGGGLVQAGGSLRLSCAASGSTFVTYAMGCYRQAPGKERELVAVITYSGGNTYYADSVKGRVTISRDNAKNTVYLQMNSLKPEDTAVYDCAAAWLTSRGSRDSHRKYYYWGQGTQVTVSS,high polyreactivity
12,QVQLVESGGGLVQAGGSLRLSCAASGSTFVTYAMGWYRQAPGKERELVAAIDSGGNTNYADSVKGRFTISRDNAKNTVYLQMNSLKPEDTAVYYCAVRPYELHRLDDQPGGDDYWGQGTQVTVSS,low polyreactivity
13,QVQLVESGGGLVQAGGSLRLSCAASGSTFVTYGMGWYRQAPGKERELVAAITRDSSTNDADSVKGRFTISRDNAKNTVYLQLNSLKPEDTAVYYCATPRLPNFIGTEYDYWGQGTQVTVSS,low polyreactivity
14,QVQLVESGGGLVQAGGSLRLSCAASGSTFVVNAMGWYRQAPGKERELVAAIDDGAGDTYYADSVKGRFTISRDNAENTVYLQMNSLKPEDTAVYYCAADTWYQMDYWGQGTQVTVSS,low polyreactivity
15,QVQLVESGGGLVQAGGSLRLSCAASGSTFVVNVMGWYRQAPGKERELVAAITYRSGSTYYADSVKGSFTISRDNAKNTVYLQMNSLKPEDTAVYYCAAGYYSRYYVAFEYYYWGQGTQVTVSS,high polyreactivity
16,QVQLVESGGGLVQAGGSLRLSCAASGSTFVVYAMGWYRQAPGKERELVAAIDLSVGDTYYADSVKGRFTISRDNAKNTVYLQMNSLKPEDTAVYYCNVAVYYWRWIYGYWGQGTQVTVSS,low polyreactivity
17,QVQLVESGGGLVQAGGSLRLSCAASGSTFVWYAMGWYRQAPGKERELVAVINWSAGRTYYADSVKGRFTFSRDTAKNTVYLQMNSLKPEDTAVYYCATRTYYRSRTVGWGKMDYWGQGTQVTVSS,high polyreactivity
18,QVQLVESGGGLVQAGGSLRLSCAASGSTFVWYDMGWYRQAPGKERELVATITSGGITTYADSVKGRFTISRDNAKNTVYLQMNSPKPEDTAVYYCNADLYYWLRYYDRNEYRGQGTQVTVSS,low polyreactivity
19,QVQLVESGGGLVQAGGSLRLSCAASGSTFVYNAMGRYRQAPVKERELVAAISSGGSTYYADSVKGRFTISRDNAKNTVYLQMNSLKPEATAVYYCNARGSWRRDKYGTYYRYDYWGQGTQVTVSS,high polyreactivity
20,QVQLVESGGGLVQAGGSLRLSCAASGSTFVYNAMGWYRQAPGKERELVAAISRGGGITYYADSVKGRFTISRDNAKNTVYLQMNSLKPEDTAVYYCQYLSRGLNTYRSSQGDDDYWGQGTQVTVSS,high polyreactivity
21,QVQLVESGGGLVQAGGSLRLSCAASGSTFVYNAMGWYRQAPGKERELVASITRSGSSTYYADSVKGRFTISRDNAKNTVYLQMNSLKPEDTAVYYCAVRYSVLSNYRYYYWGQGTQVTVSS,low polyreactivity
